In IntAct's records for PubMed 19966303:

Key:
[1] = biological target: atc5_yeast DNF1 (UniProt P32660)
[2] = biological target: ypk1_yeast YPK1 (UniProt P12688)
Chain of ypk1_yeast YPK1 (P12688 whole entry): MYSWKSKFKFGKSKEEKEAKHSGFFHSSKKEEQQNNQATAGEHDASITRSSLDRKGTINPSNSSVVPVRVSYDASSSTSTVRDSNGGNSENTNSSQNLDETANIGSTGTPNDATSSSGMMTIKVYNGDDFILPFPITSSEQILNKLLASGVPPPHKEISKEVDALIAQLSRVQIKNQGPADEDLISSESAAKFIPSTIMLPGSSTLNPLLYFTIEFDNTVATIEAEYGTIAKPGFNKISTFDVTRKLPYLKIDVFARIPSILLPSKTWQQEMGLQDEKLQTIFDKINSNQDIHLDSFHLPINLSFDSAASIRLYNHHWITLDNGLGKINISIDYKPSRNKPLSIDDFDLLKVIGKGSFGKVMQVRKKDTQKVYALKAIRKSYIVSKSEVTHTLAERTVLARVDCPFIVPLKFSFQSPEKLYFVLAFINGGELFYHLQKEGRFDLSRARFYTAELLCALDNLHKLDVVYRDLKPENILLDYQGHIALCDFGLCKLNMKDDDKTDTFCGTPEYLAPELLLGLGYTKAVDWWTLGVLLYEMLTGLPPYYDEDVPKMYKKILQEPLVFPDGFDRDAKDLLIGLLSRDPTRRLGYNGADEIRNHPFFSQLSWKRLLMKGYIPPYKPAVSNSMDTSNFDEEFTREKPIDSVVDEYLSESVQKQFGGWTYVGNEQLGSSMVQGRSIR

Chain of atc5_yeast DNF1 (P32660 whole entry): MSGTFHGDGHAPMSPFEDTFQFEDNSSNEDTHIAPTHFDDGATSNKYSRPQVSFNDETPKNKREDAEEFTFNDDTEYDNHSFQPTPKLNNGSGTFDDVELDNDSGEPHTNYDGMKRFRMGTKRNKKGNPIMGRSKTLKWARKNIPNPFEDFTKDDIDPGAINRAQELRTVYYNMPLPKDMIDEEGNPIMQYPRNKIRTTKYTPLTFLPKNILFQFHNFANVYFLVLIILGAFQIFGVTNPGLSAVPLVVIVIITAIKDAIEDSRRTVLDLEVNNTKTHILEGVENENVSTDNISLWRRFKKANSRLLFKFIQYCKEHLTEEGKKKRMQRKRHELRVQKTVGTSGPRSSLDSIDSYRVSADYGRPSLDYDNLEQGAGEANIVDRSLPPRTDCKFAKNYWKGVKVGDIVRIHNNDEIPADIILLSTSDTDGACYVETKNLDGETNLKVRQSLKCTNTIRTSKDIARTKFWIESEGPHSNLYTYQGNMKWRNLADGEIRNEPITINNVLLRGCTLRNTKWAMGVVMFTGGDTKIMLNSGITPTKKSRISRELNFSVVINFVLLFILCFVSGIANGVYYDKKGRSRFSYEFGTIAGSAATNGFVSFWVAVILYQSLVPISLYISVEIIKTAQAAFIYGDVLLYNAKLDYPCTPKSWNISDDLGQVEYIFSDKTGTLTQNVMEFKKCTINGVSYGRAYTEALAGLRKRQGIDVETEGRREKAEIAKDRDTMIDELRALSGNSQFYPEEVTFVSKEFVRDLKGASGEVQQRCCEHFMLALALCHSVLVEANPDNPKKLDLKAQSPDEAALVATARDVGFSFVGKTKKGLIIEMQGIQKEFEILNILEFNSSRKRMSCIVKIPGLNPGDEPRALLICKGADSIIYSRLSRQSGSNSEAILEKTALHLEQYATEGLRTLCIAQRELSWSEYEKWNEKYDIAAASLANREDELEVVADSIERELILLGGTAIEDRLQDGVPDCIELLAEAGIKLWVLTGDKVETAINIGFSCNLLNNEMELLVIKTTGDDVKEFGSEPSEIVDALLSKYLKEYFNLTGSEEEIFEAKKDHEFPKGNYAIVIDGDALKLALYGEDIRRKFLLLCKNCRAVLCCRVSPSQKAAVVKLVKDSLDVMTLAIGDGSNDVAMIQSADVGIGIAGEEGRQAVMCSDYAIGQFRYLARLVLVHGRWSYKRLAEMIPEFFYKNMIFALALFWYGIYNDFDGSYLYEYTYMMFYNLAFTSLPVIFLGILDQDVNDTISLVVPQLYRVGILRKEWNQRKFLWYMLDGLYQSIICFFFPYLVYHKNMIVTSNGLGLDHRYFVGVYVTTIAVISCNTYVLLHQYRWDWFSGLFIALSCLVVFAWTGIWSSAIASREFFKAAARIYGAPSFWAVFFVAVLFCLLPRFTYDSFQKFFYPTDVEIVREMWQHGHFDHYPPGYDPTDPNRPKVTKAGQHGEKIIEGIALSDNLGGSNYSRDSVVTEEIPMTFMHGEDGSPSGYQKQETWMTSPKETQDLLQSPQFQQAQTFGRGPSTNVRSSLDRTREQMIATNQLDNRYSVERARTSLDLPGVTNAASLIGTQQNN

effect of a mutation on the interaction [1]: disrupting interaction
effect of a mutation on the interaction [2]: disrupting interaction
Substance: Flippase kinase 1 (Saccharomyces cerevisiae), P53739 D621A
